Changes are numbered by the printed parent chain. Names may count otherwise.

In series [1] the test system is DAOCS. In words: Specific activity of DAOCS mutants by turnover of α-[14C]-ketoglutarate with penicillin substrates. The format is biochemical. As for the experimental part:
(§1) Almost all the mutants expressed well, except R88I, R88Q and R87Q/R287Q whereby the expression level was only about half of others. Generally the expression level of colonies was about 10˜20% of soluble protein at 27° C. Moreover, recombinant enzyme of P168V mutant was insoluble. These mutant enzymes were purified to ˜60-70% purity with Resouce-Q column (Phamacia). The activity of each mutant with respect to penicillin N and its side-chain analogues was analysed by bioassay. […] Screening of the substrate conversion of penicillins mutants was also performed using a assay with radiolabelled α-ketoglutarate. The reaction conditions were the same as for bioassay except that [^14C]-α-ketoglutarate was used.

In series [2] the test system is E. coli X580 cells. Description: Hole-plate bioassay containing penicillinase, on enzyme reaction products. Conditions: products of the reaction with penicillin G; hole-plate assay with penicillinase. The format is cell-based. As for the experimental part: as §1
For series [3], the target named is DAOCS (Streptomyces clavuligerus, UniProt P18548). The conditions noted are these: compared with conversion of penicillin N to DAOC; cited from earlier work.
Series [4] in a line: Expression of recombinant DAOCS mutants, solubility of the enzyme. Conditions: expressed at 27° C.
From the text: A U.S.E mutagenesis kit (Phamacia) was used for all the mutagenesis reactions and a Pst I restriction site on the pET vector was selected. Selection of single and double mutants were successfully performed from colonies by restriction enzyme digestion. (Sambrook et al, Molecular Cloning, A Laboratory Manual, Cold Spring Harbour, USA, 1989). […] Mutations of DAOCS (Table 1) were confirmed by sequencing according to the dideoxy method of Sanger. Mutants were designed after study of the IPNS-Mn^2+ and the IPNS-Fe(II)-ACV structures. Polar residues with which the side chain D-α-aminoadipoyl (carboxylate and amino groups) might bind to were identified.
as §1

B1: Wild type: unmodified deacetoxycephalosporin C synthase (DAOCS, expandase) (protein, UniProt P18548 1-311, looked up)
Deacetoxycephalosporin C …: MDTTVPTFSLAELQQGLHQDEFRRCLRDKGLFYLTDCGLTDTELKSAKDLVIDFFEHGSEAEKRAVTSPVPTMRRGFTGLESESTAQITNTGSYSDYSMCYSMGTADNLFPSGDFERIWTQYFDRQYTASRAVAREVLRATGTEPDGGVEAFLDCEPLLRFRYFPQVPEHRSAEEQPLRMAPHYDLSMVTLIQQTPCANGFVSLQAEVGGAFTDLPYRPDAVLVFCGAIATLVTGGQVKAPRHHVAAPRRDQIAGSSRTSSVFFLRPNADFTFSVPLARECGFDVSLDGETATFQDWIGGNYVNIRRTSKA
On to B1, for which the Specific activity in series [1] (substrate 6-Aminopenicillanic acid (6-APA)) is given as 1.0 ± 0.2 nmol/min/mg; in series [1] (substrate Adipyl-6-APA), 2.7 nmol/min/mg; in series [1] (substrate Ammoxicillin), 1.4 ± 0.6 nmol/min/mg; in series [1] (substrate Ampicillin), 0 nmol/min/mg; in series [1] (substrate Carbenicillin), 0 nmol/min/mg; in series [1] (substrate Cloxacillin), 1.6 ± 0.6 nmol/min/mg. Also, the Specific activity in series [1] (substrate Methicillin) is reported as 0 nmol/min/mg; in series [1] (substrate Penicillin G), 5.1 ± 0.4 nmol/min/mg; in series [1] (substrate Penicillin N, uncoupled decarboxylation subtracted) it was 6.4 nmol/min/mg; in series [1] (substrate Penicillin V) it was 5.3 ± 0.3 nmol/min/mg; in series [1] (substrate oxacillin), 0 nmol/min/mg; in series [1] (substrate piperacillin), 0 nmol/min/mg. In addition, the “Oxacillin accepted as substrate (in words)” value in series [1] (substrate oxacillin) is on record as “neither oxacillin nor piperacillin are substrates”. The “Piperacillin accepted as substrate (in words)” value in series [1] (substrate piperacillin) is “neither oxacillin nor piperacillin are substrates”. For the same molecule, in series [2], the “Inhibition of growth of E. coli X580 cells” value was “showed the same inhibition”. Besides, the “Efficiency of conversion of penicillin G to phenylacetylcephalosporin C” value in series [3] is on record as “much less efficient”.

B2: P168V: DAOCS mutant whose recombinant enzyme was insoluble (protein, UniProt P18548 1-311, looked up, variant P168V)
Deacetoxycephalosporin C …: B1 Deacetoxycephalosporin C … with P168V
Take B2: the “Solubility of recombinant enzyme” value in series [4] is given as “insoluble”.

Source of the values: patent US20030088058A1, “ISOPENICILLIN N SYNTHETASE AND DEACETOXYCEPHALOSPORIN C SYNTHETASE ENZYMES AND METHODS” (priority 1996, published 2003).
